The nature of the series: soluble on expression in E. coli; label from the status in PepcDB or PDB records.
In the case of “MSLEKKNASTDEKGYYSNKISLEDLNKNIEDKKEQTIYFYQTSCVHCQKVSPIVVPLAKDLNVDMKVIDIENLNEPWDKYNIQGTPTIIHFKDGKEVSRISGEQSKDKFKEWFEQTKKEGHHHHHH”, the “soluble on expression in E. coli” value was “not soluble”. For “MEPSTIVKLDVGGKIFKTTIFTLCKHDSMLKTMFCTDVPVTKNEEGSVFIDRDSKHFRLILNFLRDGQIALPDSDREVREVLAEASYFLLDPLIELCGERLEQSLNPYYHLVSTVLEARKIIFATEKPIVVLRLPVYIATSGNQSYYFSETKFRELSEEYHKHVAFILITEPEFNEDCSWSFFLRAKKITARIKGPMDCNLVEECMPKTVERRREKKTWH” the value was “not soluble”; for “METNALDVNKQSWDQAAPRFFARNPLPEYGPLAPSEEELHLFGDVDRLKVLEIGCGSGHSLKYLDEKQAGELWGIDLSTKQIEAAQTVLKDSKAPVTLFESPMEVNPGLPTDYFDIVFSIYALGWTTNLTKTLENVYRYLKPGGSFIFSWEHPMYNRVRQHQHGLTVDKSYHEEGAYAHEAWSSPAIMQQYRLSTYLNHLIDHGFKVERVIEDVCLADAQKHTNGWYGYEKAQMIPTTLIIKCLKQLEHHHHHH”, “not soluble”; for “MPQSFTSIARIGDYILKSPVLSKLCVPVANQFINLAGYKKLGLKFDDLIAEENPIMQTALRRLPEDESYARAYRIIRAHQTELTHHLLPRNEWIKAQEDVPYLLPYILEAEAAAKEKDELDNIEVSK”, “soluble”. With “MANLKRYNDGLFKLDLWIRRLLTIGESNELYTALCDGVCDIVGAGTAVFTTIDMQAGTLTYMAASGGWNAMVKGLAVPMKSGNLCASVAACGTPLRIDQISSRTDSCELLQVMDMDAAVLVPVLEEGRVTACLSAFRVGNPFDQIDEQLLQQYAHTASMVLRTVRLMVDLR” the entry was “not soluble”. With “MCLICDRIKMIKINQNKFFVKELKTGYVVLGDNQHFKGYTLFLYKEHENELYQLEPNEKLNFLEEMSLVGEAVSKAFECEKMNYELLGNGDSHLHWHLFPRISGDLGEYGYYGKGPVWWYPREKMYSTDNEPTDEELEKLKQRLNVELDRLFYEKLEHHHHHH”, the “soluble on expression in E. coli” value was “not soluble”. With “MAIGKKVSKKTPLLLAADSHKNAAKMPCFLLQAHRIANTVIAGWHGQRKRGNGENFWQFRPYVEGESITRIDWRRSARDGHTYLREHEWEKTQTVWIWPDQSASMHYCSCFSQTSKDNYAIILALTLATLLARSGENIAIPTLMPPTMAPNVVERMALALVNRHTENPFPDFSTITRFSHVIIMSDFLDSPEKIIQNLTVLSAKQITVHLIEVADPAEEHFPYAGHTEFFDPETKEKRILGKAENSREHYCKLYQARRQELTNFCTRQGWTYHVSKTDRPLTEVILRLANKIGISPSHNRRSL” the entry was “not soluble”. For “MTLDLFAPQPKTNLLPYDGDVEDYGCFISTAEAEQYFQYFLKHLAWRHDEARLYGKHFITPRQVAWYGDDHYRYAYSGIMRDSLPWDPQLLILKQQIEQTLAERFNSCLANLYQEGTQGMAWHSDGDMSLAKQTTIASLSLGATRKFCFRHLRTKEKIEMQLQSGQLIVMRGETQQHWQHAIMKSQKVIHPRINLTFRQFLLLEHHHHHH” the value was “not soluble”; for “MQQFATLSLASLLMLGTFTAFAAENGDAPASGWHIDDSATKGASGQQGMFDGVRLTEQQRQQMRDLMHQSRQDKPAFNTEDVKAMHKLVTAETFDEAAVRAQITRMMSVQIERQIQMTRVRNQMYNLLTPAQKEILELKHKQRMKEMQQQISMFNQMVAPSSGTTNHTETDSPELEHHHHHH”, “soluble”; for “MSLGEEFHRNRTRFTKDPRVKSQDLLILALMDNQLRPTLHYQAQNPHRRVLVTGATGYIGGRLITELLAAGFQVRATSRKKTSLQRFDWYEDVEAVEADLTDATELDTLFKDVDVVYYLVHSMGGKNVDFEEQEQRTAENVIQAADQAGIKQIVYLSGLHPRNRKIEELSKHMRSREKVAQILLAGQTPALILRAATIIGSGSASFEIIRHLTERLPRMIAPQWITNQIEPLAIRDVLHYLISAADLKDPVNRSCDIGCGKSYEFADLLRIYADVRGLKRHVNSVPLNLPMDKLSGLWISLVTPVPFQLSFPLAQSMAEDAVTEEHSIKDIISDPPDGFIEYREAVELALAAEFDRGVPTSWDRSWTVQQPWAGQPTDPEWAGKAVYEDVRTEDTDLRAAQVWPIIEGLGGVNGWYSAPLLWRLRGIADRLIGGPGLGGRRDPRHLKLGDRIDWWRVTEIDPPHRLVLTAEMKVDGGAWLILEVADKENGGCTYTQRAIFEPKGEGHHHHHH”, “not soluble”. For “MIGGRDDYPESGFSLPFEPGPRRMQIKRGIRILGIDDSPFSRGDRESNLVGVLMRMDGYVEMMEKEKIQVDGDDVNRAIENLFLYTGRVARIIMMSGISFAGFNICDIDALYQRIRVPVISVFEQGGSVERMIAAIEKHLDDPEKVRILRSLKPVEIRNNGYIIMANLSGIDAQSAQEIITRNTIRGKFPEAIRLADLVGKILGR” the value was “not soluble”; for “MAFANLRKVLISDSLDPCCRKILQDGGLQVVEKQNLSKEELIAELQDCEGLIVRSATKVTADVINAAEKLQVVGRAGTGVDNVDLEAATRKGILVMNTPNGNSLSAAELTCGMIMCLARQIPQATASMKDGKWERKKFMGTELNGKTLGILGLGRIGREVATRMQSFGMKTIGYDPIISPEVSASFGVQQLPLEEIWPLCDFITVHTPLLPSTTGLLNDNTFAQCKKGVRVVNCARGGIVDEGALLRALQSGQCAGAALDVFTEEPPRDRALVDHENVISCPHLGASTKEAQSRCGEEIAVQFVDMVKGKSLTGVVNAQALTSAFSPHTKPWIGLAEALGTLMRAWAGSPKGTIQVITQGTSLKNAGNCLSPAVIVGLLKEASKQADVNLVNAKLLVKEAGLNVTTSHSPAAPGEQGFGECLLAVALAGAPYQAVGLVQGTTPVLQGLNGAVFRPEVPLRRDLPLLLFRTQTSDPAMLPTMIGLLAEAGVRLLSYQTSLVSDGETWHVMGISSLLPSLEAWKQHVTEAFQFHF”, “soluble”; for “MAHHHHHHMTAKSPCLDILPFIFREEQISNRIQTFPTETMKKAYLELKGYFEQYKIYAEKLINFSGSMNDENQRKEKLIIKLRCEYYAVIFSQASKLLHEYINFRNRLILELAINVNGLINSIHPNIIQRLNEDEQKELQKYCENIRSERTRSKLQNKFTVCFLNDLIIEDLNYEGVQKDMKGRNVFYSAGLKVSVFEDKALDLQKCEWAKILRD”, “not soluble”.

Take “MRKVTAAVMASTLAFSFLSHAAEVVTSDNWHPGDGATQRSAQNHMFDGISLTEHQRQQMRDLMQQARHEQPPVNVSEMETMHRLVTAEKFDESAVRAQAEKMAQEQVARQVEMARVRNQMYRLLTPEQQAVLNEKHQQRMEQLRDVAQWQKSSSLKLLSSSNSRSQLEHHHHHH”: the “soluble on expression in E. coli” value is given as “not soluble”. For “MGSDKIHHHHHHMQWTEEQLPAIHSFAKKLLVQAFAGTGKTTTLVGYATHNSSVKMLYLCYNKAVEIAAKNRFPRNVTCKTAHGLAYAVYGSQYKHKQAGNLRLTDIARTINTQDWELAKDIVSTLNAFMASKDLELLEDHFVRFQSNRTLTSVQQQYMSKALNLTRDVWDKMVDIQDRSVSMTHDGYLKLYQMSQPDLSQRFGAILLDEGQDVNPVIANLVQIQKITQVTVGDRHQQLYRFRGAVDALNSPAMKDAEKHFLTQSFRFGPAVAYVANVILSFKGEKIPLQGLGQPTLVKRALPEDLPHRTYLHRTVSGVIENALRLVNQDHRMQWIGGIDSYSLRDLEDLFYFSRHMNDQVQQRKLLTDYADYDQYVVIAKATQDPEMLRSIKMIENYPDLPKRIEQLRGASVTSELDATVTLSTAHRAKGLEWDFVGLYDDFSADPLSPDIDAGKRDDELNLLYVAVTRAMKILAVNSLVIDIMQRFKDMKQRSRP” the value was “not soluble”. Regarding “MSGVRFPSGSLKDVRFFLHLFFSSKYGIIYVRYLDEEGTIMKQIIISVGREFGSGGHIVAQKLAEHYDIPIFNKELLEEMARKEGYSEKALEKYDEKPVNFGFMPLPYAGGNIPIEQEIAMKQFEFIKNKADAGESFVIVGRCADEILAYNPNLVSVFITGDRESKIARVMDREGLDRKQAINKMKRMDKIRKTYHNFYCRNKWGDSRGYDICINTGKTDFDTAKNMVVECVDKLKERSE”, the “soluble on expression in E. coli” value is “not soluble”. Turning to “MSLNDILNEFIDKYFPLSNEPLLPDFKDLNYPENLPTLVIDLNYVIAKLEYDRKTGWRVLKRPYADRFFKELSSFYEIVIWSDDNFPVAQEVISKWGIPAIGCLHRDQCSKKKKSYVKDLKRLGRNLDRVVIIDHDAKAFMLQPENGILIKEFHGDLNDKEMLCLIDLLKSFAISTHDISQFLKKHGGGDYNIGKRYLQQKEGHHHHHH”, the “soluble on expression in E. coli” value was “soluble”. With “MSLCGIAGFFSRRPVNPAVPQAMLDELHRRGPDDASRLLLDSELNPADGGAIHNAMLHARLAIVDPRPVANQPMASDDGQVWICYNGEVYDWEIGKAELEAGGAVFRTHSDTEFILRGYQAWGIEGLLERLRGMFAFAILDKRCEKVHLARDRMGEKPLLYSLQDGDFAYGSLVRAVLPFLPADKRAFSPAAIDAYLAHRYIPSPATVFSHINRLENGYRLEFDLNTRQLTKQRYWQPKAESGDWLPELDRAVAMRTVADRPLGVLLSGGIDSTVIASRLAIQQLTQFSSFTAAFPGSTLDESGDAADSARRMGLPNVRVDMPENLAADFERIVADLDQPFADPSSFPTWYLAREVTKHVKVVLVGDGGDELLAGYKRMGKHLRTRWRQNIRLPLPIKPQLDSKRGKLATELAMDWKSAYSLRFSGFTPGQRSFLQGGRKLEKLCHWRAPDDIGPEPGDGSPGLHQLLELDFANYLPDYILQKSDLCTMAHGLEGRAPLLDHGFYQRLLSTSAAERYTRPAKLIFRRAIHPALPTDFFQRKKRGFNPPLSGWLKTSLAPRFDGLGSRLAEASGGQLDAGAVDAFARAYRDGAGHLAEQMLQLLILDESLTQLRRLCRELGEGHHHHHH” the entry was “soluble”; with “MVFNFLIVSDEVEDFRREIAIDSEATFLDLQNAILDSVGYSHSELTSFFLCDEDWHKGQEITLMEMDTASDEDSYVMENTRLEEFIEDEHQRLVFEFDLMTERYFFIEVMDIVPGKSLSEPKLLTSEGLPPQQSSLDDLMDPTAIPTKQARGLDLEEDFFGDSEYNEDEIDREGFEGFDEITSDLSDNY”, “not soluble”; with “MVTGLICFTGCSDDFLKDKKVYGSYDASVVYENYETAKSRVDFLYQSLLPSSTGGSNALTDITSAGIDDDFSKCTEEYGDYSIFNDPTASLTIQTVPDYFYVINSERSPWGRIRECNNVIEGVTGSATLSQTEKEQLLGQAYFFRAWRYYLLVKMYGGVPIVDHVQNPVIGDGNGENLVIPRSSTKACIDFICDDLELAASYLPARWQNEGQDYGRITAGAALALKGRTLLLYASPLFNRADDASRWKDAYDANFAAITKLNEGNFGLAYEGNGGEDNAKNWARMFATYTGGSEAVFVTLYNNVSPIASQNINRYNLWEQGIRPGNINGGGGKTPTAEIIDIFPMIDGKKPMESGVHYDPKKFFLNRDPRFYRTFAFPGVEWKFNSGNVDFSGATMSGLCPTRYTSGANYELWNYCWYTTADERNNPSRSGFAADMLGTKNRGVYVRKRSDDFDLGTSLYVFTDNSSGDQQGFRRSAAPYMEIRYAEVLLNLAESACGAGGTYHAEGVKALKAVRGRVGYTSANNYGLDAAIETDRAKLFEAILYERQVELAFEGKRAYDMRRWMLFDGGVGQGALNASWALSGFGGNTCTYLGVTPMNERGKRYRIEINVEGTGSANNDSDPIKNVERPAALTLNEKIATEADGETILDPAVSSICTFYDTYFSRKDISLDGNVLDINPYFQPRYYFFGLRQSAQQTNATLYQTIGWEDYAHGGMGTFDPLAE”, “not soluble”.

Values taken from the DeepSol protein solubility set.
